Assay results: publication doi:10.1101/2025.11.04.686567, “Models for the architecture of the human inner kinetochore CCAN complex on centromeric α-satellite CENP-A nucleosome arrays”

Target: CCAN (CENP-C, CENP-LN, CENP-HIKM, CENP-OPQUR, CENP-TWSX) (Homo sapiens, UniProt Q03188;Q8N0S6;Q96H22;Q9H3R5;Q92674;Q9BS16;Q9NSP4;Q9BU64;Q6IPU0;Q7L2Z9;Q71F23;Q13 …)
Test: cryo-EM; mild cross-linking; 3.5 A; SEC on Superose 6 Increase or Agilent Bio SEC-5 1000A; buffer, salt, pH and temperature not given in the material
Settings: protein: recombinant; copies: 1;1;1;1;1;1;1;1;1;1;1;1;1;1;1;1

B1: native alpha-satellite 171 bp DNA (dsDNA)
DNA 1: CCGCTTTGAGGCCTTCGTTGGAAACGGGAATATGTTCACATAAAAACTAGACAGAAGCATTCTCAGAAACTTCTATGTGATGTTTGCATTCAACTCATAGAGTTGAACATTCCTTTTCATAGAGCAGTTTTGAAACACTCTTTTTGTAGTATCTGGAATTGGACATTTGGA
DNA 2: TCCAAATGTCCAATTCCAGATACTACAAAAAGAGTGTTTCAAAACTGCTCTATGAAAAGGAATGTTCAACTCTATGAGTTGAATGCAAACATCACATAGAAGTTTCTGAGAATGCTTCTGTCTAGTTTTTATGTGAACATATTCCCGTTTCCAACGAAGGCCTCAAAGCGG
- binding result: binds
